For test [1], the target named is T1, Murine CXCR2 (Mus musculus, UniProt P35343).
T1 construct: expressed in transfected cells
T1 sequence (P35343 1-359): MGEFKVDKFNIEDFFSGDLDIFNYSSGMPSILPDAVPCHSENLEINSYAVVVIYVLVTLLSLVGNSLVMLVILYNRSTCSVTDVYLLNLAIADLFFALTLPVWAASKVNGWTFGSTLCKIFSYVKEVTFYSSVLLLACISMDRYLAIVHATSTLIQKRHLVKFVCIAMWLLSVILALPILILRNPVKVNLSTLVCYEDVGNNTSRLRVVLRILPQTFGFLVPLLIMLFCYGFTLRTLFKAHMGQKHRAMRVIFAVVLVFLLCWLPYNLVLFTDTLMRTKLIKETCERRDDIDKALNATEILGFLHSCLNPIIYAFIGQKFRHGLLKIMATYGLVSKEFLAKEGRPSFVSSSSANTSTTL
The test is described as follows: cELISA of hybridoma supernatants on cells transfected with murine CXCR2. The class given is binding. Particulars: hybridoma supernatant; fluorescence units relative to positive control (100%).

The target in test [2] is T2, Human CXCR2 (Homo sapiens, UniProt P25025).
T2 sequence (P25025 1-360): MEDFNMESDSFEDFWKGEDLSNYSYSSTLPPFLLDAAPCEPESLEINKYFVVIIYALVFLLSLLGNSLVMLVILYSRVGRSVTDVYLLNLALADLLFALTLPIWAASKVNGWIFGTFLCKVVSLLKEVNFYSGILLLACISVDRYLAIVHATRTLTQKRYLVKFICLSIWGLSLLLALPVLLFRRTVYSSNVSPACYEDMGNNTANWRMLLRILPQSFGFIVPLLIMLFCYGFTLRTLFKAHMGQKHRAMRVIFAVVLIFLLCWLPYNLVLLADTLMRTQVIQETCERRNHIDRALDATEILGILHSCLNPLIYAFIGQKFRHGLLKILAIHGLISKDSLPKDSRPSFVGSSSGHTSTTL
The test is described as follows: cELISA of hybridoma supernatants on cells transfected with human CXCR2. The class given is binding. The arrangement: host or cells: Expi293F cells, vector pTT5. Particulars: hybridoma supernatant; fluorescence units relative to positive control (100%). On the procedure:
To generate hybridomas which produced monoclonal antibodies to human CXCR2, splenocytes and/or lymph node cells from animals with the highest anti-CXCR2 titres were isolated and fused to mouse myeloma cells (ATCC, CRL-1580). Cells were plated at approximately 1×10^5 cells/mL in flat bottom microtiter plates, followed by a two week incubation in selective medium (10% FCS and 1×HAT (Sigma)). Hybridomas were expanded by serial passage through four media changes in 96-well plates (96-well stages 1 to 4), then, where required, expanded into T25 and T75 flasks. […] Bound antibodies were detected using a goat anti-rat IgG-HRP (Southern Biotech, #3030-05) secondary antibody.
A panel of hybridomas was generated using lymph nodes and spleen cells from the transgenic rats engineered to express human variable region sequences. A cellular ELISA (cELISA) was used to detect human CXCR2 binding activity in supernatants taken during the expansion process for the hybridomas (Table 5). Hybridomas that retained expression of antibodies that bound CXCR2 after several passages were selected for DNA sequencing.

In test [3] the target is T2, Human CXCR2. Kind of test: Flow cytometry binding assay, Expi293F cells transiently transfected with human CXCR2. The arrangement: host or cells: Expi293F cells, vector pTT5. As to conditions: combinatorial variants with light chain c. On the procedure: For each 10 mL transfection, lipid-DNA complexes were prepared by diluting 10 μg of plasmid DNA in Opti-MEM™ I Reduced Serum Medium (Cat. no. 31985-062) to a total volume of 1.0 mL. 54 μL of ExpiFectamine™ 293 Reagent was diluted in Opti-MEM™ I medium to a total volume of 1.0 mL. Transfections were carried out according to manufacturer's instructions. The cells were incubated in a 37° C. incubator with a humidified atmosphere of 8% CO2 in air on an orbital shaker rotating at 200 rpm. Approximately 18-24 hours post-transfection, the cell viability was evaluated and transfected cells harvested for use.
Harvested cells were resuspended in FACS buffer (1×PBS+0.5% (w/v) bovine serum albumin (BSA)+2 mM EDTA pH 7.2). Approximately 2×10^5 cells were added per well in a 96-well round-bottomed plate. Cells were pelleted by centrifugation at 400 g for 5 mins at 4° C. and supernatants discarded. 25 μL of each test antibody or control antibody was added to the cells and incubated for 30 minutes at 4° C. Cells were washed twice in 100 μL FACS buffer followed by centrifugation at 400 g for 5 mins at 4° C.
For detection, 50 μL of secondary antibody (Table 2) was added to relevant samples. Commercially available antibodies that bound to transfected CXCR family members were used as positive controls to ensure that the cells were expressing the receptors. Cells were washed twice in 200 μL of FACS buffer followed by centrifugation at 400 g for 5 mins at 4° C. Before sample acquisition, cells were resuspended in 100 μL of FACS buffer. Samples were acquired using the high throughput sampler on a FACSCanto™ II cytometer (Beckton-Dickinson).
Binding of BKO-4A8 and variants thereof was detected by incubation of fluorochrome-conjugate anti-human IgG light chain lambda antibody. The binding activity of antibodies tested, quantified as mean fluorescent intensity, was independent of the antibody Fc region as illustrated in FIG. 9.
In general terms: In flow cytometry, cells or beads pass a laser one at a time.

Test [4] concerns the target T2, Human CXCR2. The test is described as follows: Tango CXCR2-bla U2OS cell-based β-arrestin recruitment assay. On the set-up: The beta-arrestin/TEV protease fusion and the beta-lactamase reporter are separate parts of the cell line. Particulars: human agonist potency. From the text:
Cells were thawed, propagated, cultured and frozen according to the manufacturer's directions.
Preparation of Tango™ CXCR2-bla U2OS cells for use in cell-based assays: The manufacturer's protocol was altered to make use of 96-well plates instead of 384-well plates. Briefly, dividing cells were harvested one day prior to use. Cells were harvested and resuspended in assay medium (100% FreeStyle™ Expression Medium; Life Technologies; Cat #12338-018) at a viable cell density of 312,500 cells/mL. 128 μL of cell suspension was added per well in 96-well black-walled, clear bottom tissue culture-treated plates. Cells were incubated for 16-20 hrs at 37° C. in an atmosphere of 5% CO2 prior to use in assays.
Tango™ assay procedure: Assays were set up and run as described in the manufacturer's protocol. For antagonist assays, agonists were used at concentrations in the EC50-EC80 range. Assays were read using a FlexStation® 3 (Molecular Devices) fluorescence plate reader configured with the parameters given in Table 4. The blue/green emission ratio for each well was calculated by dividing the blue emission values by the green emission values. All inhibition curves were fitted using a four-parameter dose-response using GraphPad Prism™ (Version 7.01).
The Human CXCR2 Tango™ cell line was used to assess the ability of antibody BKO-4A8-101c to inhibit β-arrestin recruitment to agonist-activated CXCR2. All human ELR+ chemokine CXCR2 ligands were tested in antagonist dose response assays using calculated EC50 values of agonist.
The commercially available reporter cell line Tango™ CXCR2-bla U2OS (ThermoFisher Scientific) was used to assess the ability of the anti-CXCR2 antibodies to inhibit β-arrestin recruitment to agonist-activated CXCR2. Agonists were provided at their assay EC50 concentration for antagonist assays.
In general terms: Activated receptors often draw arrestin, which recruitment assays turn into a signal.

For test [5], the target named is T2, Human CXCR2. The test is described as follows: Calcium flux assay, HTS002C-CHEMISCREEN human CXCR2 calcium-optimized cell line. As to conditions: human agonist potency. Type of test: cell-based. On the procedure:
One of the signaling pathways downstream of CXCR2 activation that has a role in cell chemotaxis is characterized by calcium mobilization (flux). The ability of BKO-4A8-101c to inhibit human CXCR2 ligand-induced calcium flux was tested in the commercially available HTS002C-CHEMISCREEN™ human CXCR2 chemokine receptor calcium-optimized cell line.
The Fluo-4 NW calcium assay kit (Life Technologies) was used according to manufacturer's protocol for in-cell measurement of calcium mobilization, which was read using a FLIPR Tetra high-throughput cellular screening system (Molecular Devices). The peak response minus the basal response from each well was used to determine inhibition dose response curves fitting a four-parameter logistic equation and IC50 values.

B1: BKO-5E8: VH SEQ ID NO: 21, VL SEQ ID NO: 22 (antibody, V domains shown)
VH: EVQLLESGGGLVQPGGSLRLSCAASGFTFSSYAMSWVRQAPGRGLEWVSAIRGSGAGTYYADSMKGRFTISRDNSKDTLYLLMNSLRAEDTAVYYCSKLEAVSGTGKYFQHWGQGTLVTVSS
VL: SYELTQPPSVSVSPGQTANITCSGDTLGDKFACWYQQKPGQSPVLVIYQDTKRPSGIPERFSGSKSGITATLTISGTQAMDEADFYCQAWNSRGVVFGGGTRLTVL
modifications: BKO_5E8_H5_C05_VH; BKO_5E8_L3_C03_VL
Take B1: in test [1], the “Murine CXCR2 % Positive” value was 8%. For the same molecule, in test [2], the “Human CXCR2 % Positive” value came to 109%.

B2: 102c: VH SEQ ID NO: 162, VL SEQ ID NO: 110 (antibody, V domains shown)
VH: EVQLLESGGGLVQPGGSLRLSCAASGFTFSSSTQSWVRQPPGKGLEWVSAISGRGRSTYYADSVKGRFTISRDNSKNTLYLQMNSLRAEDTAVYYCAIQEGYWGQGILVTVSS
VL: QSALTQPPSASGSPGQSVTISCIGTSSDVGGYNYVSWYQQHPGKAPKLMIYEVSKRPSGVPDRFSGSKSGNTASLTVSGLQAEDEADYYCSSYAGSNNFGVFGGGTKLTVL
modifications: 4A8 VH Variant 102 M34Q_A40P_N56S_R75K_M96E; 4A8 VL variant c D41G_N52S_N94S
Turning to B2, in test [3], the “CXCR2 binding activity versus parental BKO-4A8” value was “reduced”.

B3: BKO-5G11: VH SEQ ID NO: 23, VL SEQ ID NO: 24 (antibody, V domains shown)
VH: EVQLLESGGGLVQPGGSLRLSCAVSGFTFSNYAMTWVRQAPGKGLEWVSAISGRGSRTYYADSVKGRFTISRDTSKNTLYLQMNSLRAEDTAVYYCAKMDYWGQGTLVTVSS
VL: QSALTQPPSASGSPGQSVTISCTGTSSDVGGYNYVSWYQQHPGKAPKLMIFEVSKRPSGVPDRFSGSKSGNTASLTVSGLQAEDEADYYCSSYAGSNNFGVFGGGTKLTVL
modifications: BKO_5G11_VH; BKO_5G11_VL
For the molecule B3, the “Murine CXCR2 % Positive” value in test [1] worked out at 22%. Besides, the “Human CXCR2 % Positive” value in test [2] is 101%.

B4: BKO-8B6: VH SEQ ID NO: 37, VL SEQ ID NO: 38 (antibody, V domains shown)
VH: EVQLLESGGGLVQPGGSLRLSCAASGFTFSSNAMSWVRQAPGKGLEWVSAISNSGRSTYYADSVKGRFTISRDSSKNTLYLLMNSLRAEDSAVYYCAIKLGYWGQGSLVTVSS
VL: QSALTQPPSASGSPGQSVTISCTGTSSDVGGYNYVSWYQQHPGKAPKLMMYEVSKRPSGVPDRFSGSKSGNTASLTVSGLQAEDEADYYCSSYAGSDNFGVFGGGTRLTVL
modifications: BKO_8B6_VH; BKO_8B6_VL
Regarding B4, the “Murine CXCR2 % Positive” value in test [1] came to 6%. Besides, the “Human CXCR2 % Positive” value in test [2] was 95%.

B5: BKO-7C11: VH SEQ ID NO: 31, VL SEQ ID NO: 32 (antibody, V domains shown)
VH: QVQLQQWGAGLLKPSETLSLTCAVYGGSFSGYYWSWIRQPPGKGLEWIGEINHSRNTNYNPSLKSRVTISVDTSKNQFSLKLSSVTAADTAVYYCARGEVRGVFTLYWYFDVWGRGTLVTVSS
VL: SSELTQGPAVSVALGQTVRITCQGNSLRFYYASWYQQRPGQAPILVIYDKNNRPSGIPDRFSGSSSGNTASLTITGAQAEDEADYYCNSRDSSGYYMIFGGGTKLTVL
modifications: BKO_7C11_H6_B06_VH; BKO_7C11_G01_VL
As for B5, the “Murine CXCR2 % Positive” value in test [1] was found to be 4%. For the same molecule, the “Human CXCR2 % Positive” value in test [2] was found to be 73%.

B6: CXCL7: human agonist chemokine, R&D Systems 393-NP (protein)
chain: AELRCMCIKTTSGIHPKNIQSLEVIGKGTHCNQVEVIATLKDGRKICLDPDAPRIKKIVQKKLAGDESAD
On to B6, for which the EC50 (as a rule, the concentration needed to bring the measured effect to its halfway point) came to 39.6 nM in test [4] and 7.14 nM in test [5].

B7: BKO-8C4: VH SEQ ID NO: 39, VL SEQ ID NO: 40 (antibody, V domains shown)
VH: QLQLQESGPGLVKPSETLSLTCTVSGGSIRTSSYYWGWIRQPPGKGLEYIGSIYYSGTTYYNPSLKSRVTMSVDTSKNQFSLKLSSVTAADTAVYYCARHGRVREVPPFDYWGQGTLVTVSS
VL: SSELTQDPAVSVALGQTVRITCQGDSLRYYYASWYQQKPGQAPVLVIYDENSRPSGIPDRFSGSSSGNTASLRITGTQAEDEADYYCNSRDTSGNHWAFGGGTKLTVL
modifications: BKO_8C4_VH; BKO_8C4_VL
As for B7, the “Murine CXCR2 % Positive” value in test [1] was determined as 6%. For the same molecule, the “Human CXCR2 % Positive” value in test [2] was 124%.

B8: BKO-1A1: VH SEQ ID NO: 1, VL SEQ ID NO: 2 (antibody, V domains shown)
VH: QLQLQESGPGLVKPSETLSLTCTVSGGSIRTSSYYWGWIRQPPGKGLEYIGSIYYSGTTYYNPSLKSRVTMSVDTSKNQFSLKMSSVTAADSAVYYCARHGRVREVPPFDYWGQGTLVTVSS
VL: SSELTQDPAVSVALGQTVRITCQGDSLRYYYASWYQQKPGQAPVLVIYDENSRPSGIPDRFSGSSSGNTASLSITGTQAEDEADYYCNSRDTSGNHWAFGGGTKLTVL
modifications: BKO_1A1_VH; BKO_1A1_VL
As to B8, in test [1], the “Murine CXCR2 % Positive” value was found to be 6%. Moreover, in test [2], the “Human CXCR2 % Positive” value was found to be 38%.

The record behind these values is patent US12018084B2, “Anti-CXCR2 antibodies and uses thereof” (Cephalon LLC, priority 2018, dated 2024).
